Test results taken from publication PMC3668522 (FEBS Open Bio, 2013).

Biological target: the molecule itself
Assay: cross-linking; SDS-PAGE of the purified CTD polypeptide: 16-kDa dimer band beside the 8-kDa monomer band; dimer formation stimulated by the oxidizing agent Cu(II)-(1,10-phenanthroline)3 and cleaved by dithiothreitol (disulfide bond)

B1: C-terminal domain (CTD) polypeptide of Arabidopsis thaliana metal tolerant protein 1 (AtMTP1) (domain or fragment, UniProt Q9ZT63 320-398, looked up)
chain: MESTPREIDATKLEKGLLEMEEVVAVHELHIWAITVGKVLLACHVNIRPEADADMVLNKVIDYIRREYNISHVTIQIER
stoichiometry N: 2
